# From patent US20210388087A1 (Chugai, published 2021)
# Target: T1, CD3 epsilon homodimer protein (UniProt P07766 23-126)
# T1 construct: also called CD3 (CD3 epsilon)
# Assay: SPR, CD3 epsilon homodimer on chip, one-arm antibody as analyte;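 also: surface plasmon resonance at 25 °C with CD3 epsilon homodimer amine-coupled to a CM4 sensor chip, antibody injected as analyte, HBS-EP+ as running buffer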
# T1 sequence (P07766 23-126): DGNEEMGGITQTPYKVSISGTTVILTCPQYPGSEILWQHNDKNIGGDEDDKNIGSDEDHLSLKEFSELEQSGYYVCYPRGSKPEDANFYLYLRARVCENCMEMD
row,KD ratio (KD of CE115HA000/KD of altered form),Binder
1,0.58,"CE115HA000 K52bS (antibody, human IgG1, kappa, L234A L235A, N297A, name in Kabat numbering, one-arm antibody) heavy: QVQLVESGGGVVQPGRSLRLSCAASGFTFSNAWMHWVRQAPGKGLEWVAQIKASSNNYATYYAESVKGRFTISRDDSKNSLYLQMNSLKTEDTAVYYCRYVHYGAYYGVDAWGQGTTVTVSSASTKGPSVFPLAPSSKSTSGGTAALGCLVKDYFPEPVTVSWNSGALTSGVHTFPAVLQSSGLYSLSSVVTVPSSSLGTQTYICNVNHKPSNTKVDKKVEPKSCDKTHTCPPCPAPEAAGGPSVFLFPPKPKDTLMISRTPEVTCVVVDVSHEDPEVKFNWYVDGVEVHNAKTKPREEQYASTYRVVSVLTVLHQDWLNGKEYKCKVSNKALPAPIEKTISKAKGQPREPQVYTLPPSRCELTKNQVSLSCAVKGFYPSDIAVEWESNGQPENNYKTTPPVLDSDGSFFLVSKLTVDKSRWQQGNVFSCSVMHEALHNHYTQKSLSLSPDYKDDDDK EPKSSDKTHTCPPCPAPELLGGPSVFLFPPKPKDTLMISRTPEVTCVVVDVSHEDPEVKFNWYVDGVEVHNAKTKPREEQYNSTYRVVSVLTVLHQDWLNGKEYKCKVSNKALPAPIEKTISKAKGQPREPQVCTLPPSRDELTKNQVSLWCLVKGFYPSDIAVEWESNGQPENNYKTTPPVLDSDGSFFLYSKLTVDKSRWQQGNVFSCSVMHEALHNRYTQKSLSLSP light: DIVMTQSPLSLPVTPGEPASISCRSSQSLVHSNRNTYLHWYQQKPGQAPRLLIYKVSNRFSGVPDRFSGSGSGTDFTLKISRVEAEDVGVYYCGQGTQVPYTFGQGTKLEIKRTVAAPSVFIFPPSDEQLKSGTASVVCLLNNFYPREAKVQWKVDNALQSGNSQESVTEQDSKDSTYSLSSTLTLSKADYEKHKVYACEVTHQGLSSPVTKSFNRGEC"
2,0.76,"CE115HA000 K64D (antibody, human IgG1, kappa, L234A L235A, N297A, name in Kabat numbering, one-arm antibody) heavy: QVQLVESGGGVVQPGRSLRLSCAASGFTFSNAWMHWVRQAPGKGLEWVAQIKAKSNNYATYYAESVDGRFTISRDDSKNSLYLQMNSLKTEDTAVYYCRYVHYGAYYGVDAWGQGTTVTVSSASTKGPSVFPLAPSSKSTSGGTAALGCLVKDYFPEPVTVSWNSGALTSGVHTFPAVLQSSGLYSLSSVVTVPSSSLGTQTYICNVNHKPSNTKVDKKVEPKSCDKTHTCPPCPAPEAAGGPSVFLFPPKPKDTLMISRTPEVTCVVVDVSHEDPEVKFNWYVDGVEVHNAKTKPREEQYASTYRVVSVLTVLHQDWLNGKEYKCKVSNKALPAPIEKTISKAKGQPREPQVYTLPPSRCELTKNQVSLSCAVKGFYPSDIAVEWESNGQPENNYKTTPPVLDSDGSFFLVSKLTVDKSRWQQGNVFSCSVMHEALHNHYTQKSLSLSPDYKDDDDK EPKSSDKTHTCPPCPAPELLGGPSVFLFPPKPKDTLMISRTPEVTCVVVDVSHEDPEVKFNWYVDGVEVHNAKTKPREEQYNSTYRVVSVLTVLHQDWLNGKEYKCKVSNKALPAPIEKTISKAKGQPREPQVCTLPPSRDELTKNQVSLWCLVKGFYPSDIAVEWESNGQPENNYKTTPPVLDSDGSFFLYSKLTVDKSRWQQGNVFSCSVMHEALHNRYTQKSLSLSP light: DIVMTQSPLSLPVTPGEPASISCRSSQSLVHSNRNTYLHWYQQKPGQAPRLLIYKVSNRFSGVPDRFSGSGSGTDFTLKISRVEAEDVGVYYCGQGTQVPYTFGQGTKLEIKRTVAAPSVFIFPPSDEQLKSGTASVVCLLNNFYPREAKVQWKVDNALQSGNSQESVTEQDSKDSTYSLSSTLTLSKADYEKHKVYACEVTHQGLSSPVTKSFNRGEC"
3,0.61,"CE115HA000 K52bY (antibody, human IgG1, kappa, L234A L235A, N297A, name in Kabat numbering, one-arm antibody) heavy: QVQLVESGGGVVQPGRSLRLSCAASGFTFSNAWMHWVRQAPGKGLEWVAQIKAYSNNYATYYAESVKGRFTISRDDSKNSLYLQMNSLKTEDTAVYYCRYVHYGAYYGVDAWGQGTTVTVSSASTKGPSVFPLAPSSKSTSGGTAALGCLVKDYFPEPVTVSWNSGALTSGVHTFPAVLQSSGLYSLSSVVTVPSSSLGTQTYICNVNHKPSNTKVDKKVEPKSCDKTHTCPPCPAPEAAGGPSVFLFPPKPKDTLMISRTPEVTCVVVDVSHEDPEVKFNWYVDGVEVHNAKTKPREEQYASTYRVVSVLTVLHQDWLNGKEYKCKVSNKALPAPIEKTISKAKGQPREPQVYTLPPSRCELTKNQVSLSCAVKGFYPSDIAVEWESNGQPENNYKTTPPVLDSDGSFFLVSKLTVDKSRWQQGNVFSCSVMHEALHNHYTQKSLSLSPDYKDDDDK EPKSSDKTHTCPPCPAPELLGGPSVFLFPPKPKDTLMISRTPEVTCVVVDVSHEDPEVKFNWYVDGVEVHNAKTKPREEQYNSTYRVVSVLTVLHQDWLNGKEYKCKVSNKALPAPIEKTISKAKGQPREPQVCTLPPSRDELTKNQVSLWCLVKGFYPSDIAVEWESNGQPENNYKTTPPVLDSDGSFFLYSKLTVDKSRWQQGNVFSCSVMHEALHNRYTQKSLSLSP light: DIVMTQSPLSLPVTPGEPASISCRSSQSLVHSNRNTYLHWYQQKPGQAPRLLIYKVSNRFSGVPDRFSGSGSGTDFTLKISRVEAEDVGVYYCGQGTQVPYTFGQGTKLEIKRTVAAPSVFIFPPSDEQLKSGTASVVCLLNNFYPREAKVQWKVDNALQSGNSQESVTEQDSKDSTYSLSSTLTLSKADYEKHKVYACEVTHQGLSSPVTKSFNRGEC"
4,0.87,"CE115HA000 K64Q (antibody, human IgG1, kappa, L234A L235A, N297A, name in Kabat numbering, one-arm antibody) heavy: QVQLVESGGGVVQPGRSLRLSCAASGFTFSNAWMHWVRQAPGKGLEWVAQIKAKSNNYATYYAESVQGRFTISRDDSKNSLYLQMNSLKTEDTAVYYCRYVHYGAYYGVDAWGQGTTVTVSSASTKGPSVFPLAPSSKSTSGGTAALGCLVKDYFPEPVTVSWNSGALTSGVHTFPAVLQSSGLYSLSSVVTVPSSSLGTQTYICNVNHKPSNTKVDKKVEPKSCDKTHTCPPCPAPEAAGGPSVFLFPPKPKDTLMISRTPEVTCVVVDVSHEDPEVKFNWYVDGVEVHNAKTKPREEQYASTYRVVSVLTVLHQDWLNGKEYKCKVSNKALPAPIEKTISKAKGQPREPQVYTLPPSRCELTKNQVSLSCAVKGFYPSDIAVEWESNGQPENNYKTTPPVLDSDGSFFLVSKLTVDKSRWQQGNVFSCSVMHEALHNHYTQKSLSLSPDYKDDDDK EPKSSDKTHTCPPCPAPELLGGPSVFLFPPKPKDTLMISRTPEVTCVVVDVSHEDPEVKFNWYVDGVEVHNAKTKPREEQYNSTYRVVSVLTVLHQDWLNGKEYKCKVSNKALPAPIEKTISKAKGQPREPQVCTLPPSRDELTKNQVSLWCLVKGFYPSDIAVEWESNGQPENNYKTTPPVLDSDGSFFLYSKLTVDKSRWQQGNVFSCSVMHEALHNRYTQKSLSLSP light: DIVMTQSPLSLPVTPGEPASISCRSSQSLVHSNRNTYLHWYQQKPGQAPRLLIYKVSNRFSGVPDRFSGSGSGTDFTLKISRVEAEDVGVYYCGQGTQVPYTFGQGTKLEIKRTVAAPSVFIFPPSDEQLKSGTASVVCLLNNFYPREAKVQWKVDNALQSGNSQESVTEQDSKDSTYSLSSTLTLSKADYEKHKVYACEVTHQGLSSPVTKSFNRGEC"
5,0.84,"CE115HA000 K64E (antibody, human IgG1, kappa, L234A L235A, N297A, name in Kabat numbering, one-arm antibody) heavy: QVQLVESGGGVVQPGRSLRLSCAASGFTFSNAWMHWVRQAPGKGLEWVAQIKAKSNNYATYYAESVEGRFTISRDDSKNSLYLQMNSLKTEDTAVYYCRYVHYGAYYGVDAWGQGTTVTVSSASTKGPSVFPLAPSSKSTSGGTAALGCLVKDYFPEPVTVSWNSGALTSGVHTFPAVLQSSGLYSLSSVVTVPSSSLGTQTYICNVNHKPSNTKVDKKVEPKSCDKTHTCPPCPAPEAAGGPSVFLFPPKPKDTLMISRTPEVTCVVVDVSHEDPEVKFNWYVDGVEVHNAKTKPREEQYASTYRVVSVLTVLHQDWLNGKEYKCKVSNKALPAPIEKTISKAKGQPREPQVYTLPPSRCELTKNQVSLSCAVKGFYPSDIAVEWESNGQPENNYKTTPPVLDSDGSFFLVSKLTVDKSRWQQGNVFSCSVMHEALHNHYTQKSLSLSPDYKDDDDK EPKSSDKTHTCPPCPAPELLGGPSVFLFPPKPKDTLMISRTPEVTCVVVDVSHEDPEVKFNWYVDGVEVHNAKTKPREEQYNSTYRVVSVLTVLHQDWLNGKEYKCKVSNKALPAPIEKTISKAKGQPREPQVCTLPPSRDELTKNQVSLWCLVKGFYPSDIAVEWESNGQPENNYKTTPPVLDSDGSFFLYSKLTVDKSRWQQGNVFSCSVMHEALHNRYTQKSLSLSP light: DIVMTQSPLSLPVTPGEPASISCRSSQSLVHSNRNTYLHWYQQKPGQAPRLLIYKVSNRFSGVPDRFSGSGSGTDFTLKISRVEAEDVGVYYCGQGTQVPYTFGQGTKLEIKRTVAAPSVFIFPPSDEQLKSGTASVVCLLNNFYPREAKVQWKVDNALQSGNSQESVTEQDSKDSTYSLSSTLTLSKADYEKHKVYACEVTHQGLSSPVTKSFNRGEC"
6,0.81,"CE115HA000 K64A (antibody, human IgG1, kappa, L234A L235A, N297A, name in Kabat numbering, one-arm antibody) heavy: QVQLVESGGGVVQPGRSLRLSCAASGFTFSNAWMHWVRQAPGKGLEWVAQIKAKSNNYATYYAESVAGRFTISRDDSKNSLYLQMNSLKTEDTAVYYCRYVHYGAYYGVDAWGQGTTVTVSSASTKGPSVFPLAPSSKSTSGGTAALGCLVKDYFPEPVTVSWNSGALTSGVHTFPAVLQSSGLYSLSSVVTVPSSSLGTQTYICNVNHKPSNTKVDKKVEPKSCDKTHTCPPCPAPEAAGGPSVFLFPPKPKDTLMISRTPEVTCVVVDVSHEDPEVKFNWYVDGVEVHNAKTKPREEQYASTYRVVSVLTVLHQDWLNGKEYKCKVSNKALPAPIEKTISKAKGQPREPQVYTLPPSRCELTKNQVSLSCAVKGFYPSDIAVEWESNGQPENNYKTTPPVLDSDGSFFLVSKLTVDKSRWQQGNVFSCSVMHEALHNHYTQKSLSLSPDYKDDDDK EPKSSDKTHTCPPCPAPELLGGPSVFLFPPKPKDTLMISRTPEVTCVVVDVSHEDPEVKFNWYVDGVEVHNAKTKPREEQYNSTYRVVSVLTVLHQDWLNGKEYKCKVSNKALPAPIEKTISKAKGQPREPQVCTLPPSRDELTKNQVSLWCLVKGFYPSDIAVEWESNGQPENNYKTTPPVLDSDGSFFLYSKLTVDKSRWQQGNVFSCSVMHEALHNRYTQKSLSLSP light: DIVMTQSPLSLPVTPGEPASISCRSSQSLVHSNRNTYLHWYQQKPGQAPRLLIYKVSNRFSGVPDRFSGSGSGTDFTLKISRVEAEDVGVYYCGQGTQVPYTFGQGTKLEIKRTVAAPSVFIFPPSDEQLKSGTASVVCLLNNFYPREAKVQWKVDNALQSGNSQESVTEQDSKDSTYSLSSTLTLSKADYEKHKVYACEVTHQGLSSPVTKSFNRGEC"
